From article doi:10.1101/2022.05.09.491158

Target: purified recombinant I-A^b carrying a cleavable linker peptide (mouse)
Test: fluorescent peptide competition binding assay

For “NP peptide Q2, P2 (Ser to Gln) (from UniProt P03466 311-325)”, the reduction in peptide-MHC binding (against the unsubstituted peptide) was 3.4.
